{
  "source": "paper PMC3835790",
  "about": "“Statistical Experimental Design Guided Optimization of a One-Pot Biphasic Multienzyme Total Synthesis of Amorpha-4,11-diene” (PLoS ONE, 2013)",
  "proteins": {"B1": {"name": "diphosphomevalonate decarboxylase (Erg19) (Saccharomyces cerevisiae S288C) (protein)", "chain": "MTVYTASVTAPVNIATLKYWGKRDTKLNLPTNSSISVTLSQDDLRTLTSAATAPEFERDTLWLNGEPHSIDNERTQNCLRDLRQLRKEMESKDASLPTLSQWKLHIVSENNFPTAAGLASSAAGFAALVSAIAKLYQLPQSTSEISRIARKGSGSACRSLFGGYVAWEMGKAEDGHDSMAVQIADSSDWPQMKACVLVVSDIKKDVSSTQGMQLTVATSELFKERIEHVVPKRFEVMRKAIVEKDFATFAKETMMDSNSFHATCLDSFPPIFYMNDTSKRIISWCHTINQFYGETIVAYTFDAGPNAVLYYLAENESKLFAFIYKLFGSVPGWDKKFTTEQLEAFNHQFESSNFTARELDLELQKDVARVILTQVGSGPQETNESLIDAKTGLPKE", "notes": "6xHis-tagged, modified pET-11a, expressed in E. coli, Ni-NTA purified; calculated mass 45181"}, "B2": {"name": "mevalonate kinase (Erg12) (Saccharomyces cerevisiae S288C) (protein)", "chain": "MSLPFLTSAPGKVIIFGEHSAVYNKPAVAASVSALRTYLLISESSAPDTIELDFPDISFNHKWSINDFNAITEDQVNSQKLAKAQQATDGLSQELVSLLDPLLAQLSESFHYHAAFCFLYMFVCLCPHAKNIKFSLKSTLPIGAGLGSSASISVSLALAMAYLGGLIGSNDLEKLSENDKHIVNQWAFIGEKCIHGTPSGIDNAVATYGNALLFEKDSHNGTINTNNFKFLDDFPAIPMILTYTRIPRSTKDLVARVRVLVTEKFPEVMKPILDAMGECALQGLEIMTKLSKCKGTDDEAVETNNELYEQLLELIRINHGLLVSIGVSHPGLELIKNLSDDLRIGSTKLTGAGGGGCSLTLLRRDITQEQIDSFKKKLQDDFSYETFETDLGGTGCCLLSAKNLNKDLKIKSLVFQLFENKTTTKQQIDDLLLPGNTNLPWTS"}, "B3": {"name": "phosphomevalonate kinase (Erg8) (Saccharomyces cerevisiae S288C) (protein)", "chain": "MSELRAFSAPGKALLAGGYLVLDTKYEAFVVGLSARMHAVAHPYGSLQGSDKFEVRVKSKQFKDGEWLYHISPKSGFIPVSIGGSKNPFIEKVIANVFSYFKPNMDDYCNRNLFVIDIFSDDAYHSQEDSVTEHRGNRRLSFHSHRIEEVPKTGLGSSAGLVTVLTTALASFFVSDLENNVDKYREVIHNLAQVAHCQAQGKIGSGFDVAAAAYGSIRYRRFPPALISNLPDIGSATYGSKLAHLVDEEDWNITIKSNHLPSGLTLWMGDIKNGSETVKLVQKVKNWYDSHMPESLKIYTELDHANSRFMDGLSKLDRLHETHDDYSDQIFESLERNDCTCQKYPEITEVRDAVATIRRSFRKITKESGADIEPPVQTSLLDDCQTLKGVLTCLIPGAGGYDAIAVITKQDVDLRAQTANDKRFSKVQWLDVTQADWGVRKEKDPETYLDK", "notes": "6xHis-tagged, modified pET-11a, expressed in E. coli, Ni-NTA purified; calculated mass 51520"}},
  "conditions_in_all_cases": "100 mM Tris/HCl pH 7.4, 30°C",
  "key": {"[1]": {"substrate": "C[C@@](O)(CCOP(=O)(O)OP(=O)(O)O)CC(=O)O", "assay": "initial rates, UPLC-(TOF)MS, double-reciprocal plot", "format": "biochemical, Saccharomyces cerevisiae", "text": "initial rates, UPLC-(TOF)MS, double-reciprocal plot on diphosphomevalonate decarboxylase (Erg19)"}, "purified protein": {"substrate": "CC(O)(CCO)CC(=O)O", "assay": "purified protein"}, "[2]": {"substrate": "C[C@@](O)(CCOP(=O)(O)O)CC(=O)O", "assay": "initial rates, UPLC-(TOF)MS, double-reciprocal plot", "format": "biochemical, Saccharomyces cerevisiae", "text": "initial rates, UPLC-(TOF)MS, double-reciprocal plot on phosphomevalonate kinase (Erg8)"}},
  "data": [
    {"protein": "B1", "values": [
      {"measurement": "Km", "setting": "[1]", "result": "190 ± 52", "unit": "µM"},
      {"measurement": "kcat", "setting": "[1]", "result": "2.8 ± 0.5", "unit": "s⁻¹"}
    ]},
    {"protein": "B2", "values": [
      {"measurement": "Km", "setting": "purified protein", "result": "460 ± 153", "unit": "µM"},
      {"measurement": "kcat", "setting": "purified protein", "result": 5.5, "unit": "s⁻¹"}
    ]},
    {"protein": "B3", "values": [
      {"measurement": "Km", "setting": "[2]", "result": "780 ± 280", "unit": "µM"},
      {"measurement": "kcat", "setting": "[2]", "result": "22 ± 7", "unit": "s⁻¹"}
    ]}
  ]
}
